Test results reported in the nanobody polyreactivity screen of Harvey et al. (2022).

Experiment: yeast display, Sf9 membrane polyspecificity reagent, FACS + sequencing; frameworks hold sequencing errors
Procedure, shortened: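 Nanobodies from a synthetic yeast display library (Saccharomyces cerevisiae BJ5465), induced 36–48 hours with galactose, were stained 1 hour at 4 °C with 10% biotinylated, detergent-solubilized Sf9 membrane reagent, enriched on streptavidin microbeads, then FACS-sorted. Anti-HA (expression) and streptavidin (reagent binding) fluorescence set low and high (top ~1%) gates. Polyreactivity labels come from the gate of origin. Genes were colony-PCR amplified, MiSeq 2 × 250 sequenced and filtered by CDR length.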

Sequence	polyreactivity (PSR sort gate)
QDQLVESGVGFVQAGVSLRLSSAASGSIFYLNAMGWYRQAPGKERELVAAITNGGSTYADSVKGRFTISRDNAKNTVYLPMNSLKPEDPAVYYCATRSWELGDYLGQGTQVTVSS	low polyreactivity
QVQLVESGGGLVQAGGSLRLSCAASGNTFVSNAMGWYRPAPGKERELVAAINSGGSTNYADSVKGRFTISRDNAKNTVYLQMNSLKPEDTAVYYCNKYYDYPQRYWMDYWGQGTQVTVSS	low polyreactivity
QGQLVESGGGLVQAGGRLRLSCAATGLTFAKNAMGWYRQAPGKEREMFAAIRSGDDTTYADSVKGRFTISRDNAKNTVYLQMNSLKPEDSAEYYCAARYYRTWDGRFGYWGQGTQVTVSS	high polyreactivity
QVQLVESGGGLVQAGGSLRLSCAASGRIVSKYALGWYRQAPGKERELVAAISNGGSTNYADSVKGRFTISRDNAKNTVYLQMNSRKPEDTAVYYCAAGWPARYEEGYNYWGQGTQVTVST	low polyreactivity
QVQLVESGGGLVQAGGSHRLSCAASGRTFSGYAMGWYRQAPGKERELVAAISFSGGSTYYADSVKGRFTISRDNAKNTVYLQMNSLKPEDTAVYYCAAEFVRQNYEMDYWGQGTQVTVSS	low polyreactivity
QVQLVESGGGLVQAGGSLRLSCAASGRIFSRYAMGWYRQAPGKERELVAAISKSGGRTYYADSVKGRFTISRDNAKNTVYLQKNSLKPEDTAVYYCATVIFRSSGYYYWGQGTQVTVSS	high polyreactivity
QVQLVESGGGLVQAGGSLRLSCAASGYTLGPYAMGWYRQAPGKERELVATISSAGNTNYADSVKGRFTISRDNAKNTVYLQMNSLKPEDTAVYYCAAAIWYGFGGASGGTYYYWGQGTQVTVSS	high polyreactivity
QVQLVESGGGLVQAGGSLRLSCAASGLTFVDNALGWYRQAPGKERELVAAISYNGGSTYYADSVKGRFTISRDNAKNTVYLQMNSLKPEDTAVYYCAADISVGRYGDMDYWGQGTQVTVSS	low polyreactivity
QVQLVESGGGLVQAGGSLRLSCAASGLTFQYYAMGWYRQAPGKERELVATISGRAGRTYYADSVKGRFTISRDNAKNTVYLQMNSLKPEDTAVYYCAAEVDYSLYTWYEYYYWGQGTQVTVSS	high polyreactivity
QVQLVESGGGLVQAGGSLRLSCAASGFTFRYYAMGWYRQAPGKERELLAAISWSGGSTYYADSVKGRFTISRDNAKNTVYLQMNSLNPEDTAVYYCAADSVFGGRGRYQASRYYYWGQGPQVTVSS	high polyreactivity
QVQLVESGGVLVQAGGSLRLSCAASGRTFYYYAMGWYRQAPGKERELVASISWDGGNTYYADSVKGRFTISRDTAKNTVYLHMNSLKPEDTAVYYCNRRFYHKDDYWGQGTQVTVSS	high polyreactivity
QEQLVESGGGLVQAGGSLRLSCAASGFTFWYYAMGWYRQAPGKEREFVAAISLGGGRTYYADSVKGRFTHSRDNAKNTVYLQMNSLKPEDTAVYYCAVDSGTYRSYRYDYCGQGTQVTVSS	high polyreactivity
QVQLVESGGGLVQAGGSLRLIFAASGFIFETYAMGWYRQAPGKERELVAAISRGASTYYADSVKGRFTISRDNAKNTVYLQMNSLKPEDTAVYDCAAKRLSWHRYGYWGQGTQVTVSS	low polyreactivity
QVQHVESGGGLVQAGGSLRLSCAASGFTFSYNAMGWNRQAPGKERELVAAISATGDGNTYYADSVKGRFTISRDNAKNTVYLQMNSLNPEDTAVYFCNRLPQYALPYRHNGYWGQGTQVTVSS	low polyreactivity
QVQLVESGGGLVQAGGSLRLSCAASGRIFGYYAMGWYRQAPGKERELVAGIDWSGGNTYYADSVKGRFTISRDNAKNTVYLQMNSLKPEDTAVYYCNTVGGRDTAWYDYWGQGTQVTVSS	low polyreactivity
QVQLVESGGGLVQAGASLRLSCAASGFTLADNTMGWYRQAPGKERELVAAITSGASTYYADSVKGRFTISRDNAKNTVYLQMKSLKPEDTAVYYCAALYYWRSGYDYWGQGTQVTVSS	low polyreactivity
QVQLVESGGGLDQAGGSLRLSCAASGRIFTAYAMGWYRQAHGKERELVAAISSGDSTYYADSVKGRFTISRDNAKNTVYLQMNSLKPEDTAVYYCATGVYPDFEYDSWGQGTQVTVSS	low polyreactivity
QVQLVESGGGLVQAGGSLRLSCAASGITFYSNAMGWYRQAPGKERELVAAISYRGGSTYYADSVKGRFTISRDNAKNTVYLQMNSLKPEDTAVYYCNKEVDWGWGRISYDSWGQGTQVTVSS	low polyreactivity
QVQLVESGGGLVQAGGSLRLSCAASGRTFARYAMGRYRQAPGKERELVAAITRGSGSTYYADSVKGRFTISRDNAKNTVYLQMNSLKTEDTAVYFCAKRSRGLKFDYWGQGTQVTVSS	high polyreactivity
QVQLVESGGGLVQAGGSLRLSCAPSGSIFPDYAMGWYRHAPGKQRELVAAIRSGSRTYYADSVKGRFTISRDNAKITVYLQMNSLNPEDTAVYYCATTYGTPRYDYWGQGTQVTVSS	high polyreactivity
QVQLVESGGGLVQAGGSLRIICAASGRIFYGNTMGWYRQAPGKERELVAAITIGDSTNYADSVKGRFTISRDNAKNTVYFQMNSLKPEDTAVYYCAKRNWWGYYNYDYWGQGTQVTVSS	low polyreactivity
QVQLVESGGGLVQAGGSLRLSCAASGSTFGAYAMGWYRQAPGKERELVAAISSSGGRTYYADSVKGRFTISRDNAKNTVYLQMNSLKPEDTAVYYCATYYRHYDLLYYYWGQGTQVTVSS	high polyreactivity

Sequence	polyreactivity (PSR sort gate)
QVQLVESGGGLVQPGGSLRLSCAASGSIVKSYAMGWYRQAPGKERELVAAITWRSGRTYYADSVKGRFTISRDNAKNTVYLQMNSLKPEDTAVYYCAADDTSYYIYSYDYWGQGTQVTVSS	low polyreactivity
QVQLVESGGGLVQAGGSLRLSCAASGLTFQYNTMGWYRQAPGKERELVARINWGGDSTYYADSVKGRFTISRDNAKNTVYLQMNSLTPEDTAVYYCAAPGYSGRYGYYTYYLYDYWGQGTQVTVSS	low polyreactivity
QVQLEESGGGLVQAGGSLRLSCAASGRIFQRNAMGWYRQAPGKEREFVAAITKSGGGTYADSVKGRFTISRDNAKNTVYLQMNSLKAEDTAVYYCNVVPVWRPYSLINWQKDFGYWGQGTQVTVSS	high polyreactivity
QVQLVESGGGLVQAGGSLRLSCASSGSIIVVYGMGWYRQAPGKERELVAAISGGITNYADSVKGRFTISRDNAMNTVYLQMNILIPEDTAVYYCATVDGAYQYTYDYWGQGTQVTVSS	low polyreactivity
QVQLVESGGGLVQAGGSLRISCAASGFIFAHNAMGWYRQAPGKERELVAAITSSGGSTYYADSVKGRFTISRDNAKNTVYLQMNSLKPEDTAVYYCAAYWKLGGFRYGYWGQGTQVTVSS	high polyreactivity
QGQLVESGGGLVQAGGSLRFSCADSGRIFHRYVMGWYRQAPGKERELVAAISWSSGSTSADSVKGRFTISRDNAKNTDYLQMNSLKPEDTAVYYCNASYNGVPARYDYWGQGTQVTVSS	low polyreactivity
QVQLVESGGGLVQAGGSLRLSCAASGNTLIVNAMGWYRQAPGKERELVAAITRDGRTNYADSVKGRFTISRDNAKNTFYLQMNSLKPEDTAVYYCNALSADWFPEEDYWGQGTQVTVSS	low polyreactivity
QVQLVESGGGLVQAGGSLRLSCAASGSTFRRYAMGWYRQAPGKERELVAGITSGGDTYYADSVKGRFTISRDNAKNTVYLQMNSLKPEDTALYYCARVRYGRMDYWGQGTQVTVSS	high polyreactivity
QVQLVESAGGLVQAGGSLRLSCAASGLIFAVYAKGLYRQAPGKEREFLAAITGTGSSTYYADSVKGRFTISRDNAKNTVYLQMNSLKPEDTAVYYCNAYVYDWIPYYHIDHDYWGQGTQVTVSS	low polyreactivity
QVQLVESGGGLVQAGGRLRLSCAASGNIFKRYTMGWYRQAPGKERELVAAISGGDSTNYADSVKGRFTISRDNANNTFYLQMNSLKPEDTAVYYCAAGGLTLWHGYILGYWGQGTQVTVSS	low polyreactivity
QVQLVESGGGLVQAGGSLRLSCAASGRTFYAYAMGWYRQAPGKERELVAAITSGASTYYADSVKGRFTISRDNAKNTVYLQMNRLKPEDTAVYYCAKRVRYYKPGYDYWGQGTQVTVSS	low polyreactivity
QVQLEESGGGIVQAGGSLRLSSAASGRIYTPNAMGSYRQAPGKERELVAAITWSGGSTYYADSVKGRFTISRDNAKNTVYLQMNRLKPEDTAVYYCAVRYSRNLMYYWGQATQVTVSS	high polyreactivity
QVQLVDSGGGLVQAGGSLRLSCAASGSIFHANAMGWYRQAPGKERELVAVISQGGGSTYYADSVKGRFTISRDNAKNTVYLQMNSLKPEDTAVYYCAAYYYYSAYGDDYWGQGTQVTVSS	high polyreactivity
QVQLVESGGGLVQAGGSLRLSCAASGSTSGIYAMGWYRQAHGKERELVAAIDTSGGSTYADSVKGRFTISRDNAKNTVYLQMNSLKPEETAVYYCAKPFSSNSWSHGYWGQGTQVTVSS	low polyreactivity
QVQLVESGGGLVQAGGSLRLSCAASGSNFTAYAMGWYRQAPGKERELVAAIDDSGDSTYYADSVKGRFTISRDNSKNTVYLQMNSLKPEDTAVYYCKAEYRVNKEYDYWGQGTQVTVSS	low polyreactivity
QVKLVESGGGLVQAGGSLRLSSDASGSIFLYNAMGWYRQAPGKERELVADISWSGGSTYYADSVKGRFTISRVNEKYTVYLQMNSLKPEDTAVYYCNAVVYWFSTSYVYTYDYWGQGTQVTVSS	high polyreactivity
QVQLVESGGGLVQAGGSLRLSCAAYGSIFSGYTMGCYRQAPGKERELVAAITQRGTRTYYADSVKGRFTISRDNAKNTVYLQMNSLKPEDTAVYYCAAVRSYYSNRGYDYWGQGTQVTVSS	high polyreactivity
QVQLVESGGGLVQAGGSLRLTCAASGIIFYIYAMGWYRQAPGKERELVAGISWRGGSTSYADSVKGRFTISRDNAKNTVYLQMNSLKPEDTAVYYCAAEVYSWDGYDYWGQGTQVTVSS	low polyreactivity
QVQLVESGGGLVQAVGSLRLSCAASGRTLSRNAKGWYRQAPGKEREFVAAISSRGTSTYYADSVKGRFTISRDNAKNSVYLQMNSLKPEDTAVYYCATTLGGNYGYDYWGQGTQVTVSS	high polyreactivity
QVQLVESGGGLVQAGGSLRLSCAASGITFIVNTMGWYRQAPGKEREFVATISANSDGTYYADSVKGRFTISRDNAKNTVYLQMNSLKPEDTAVYYWGQGTQVTVSS	low polyreactivity
QVQLVESGGGLGQAGGSLRLSCAASGSTFYLNAMGWYRQATGKERELVAAINSGDSTNYADSVKGRFTISRDNAKNTVYLQMNSLKPEDTAVYYCARDRFPSEGDYWGQGTQVTVSS	low polyreactivity
